# From patent publication US20230295310A1 (ABCELLERA BIOLOGICS, published 2023)
# Molecular target: EGFR on HeLa cells (UniProt P00533 25-1210, limits assumed)
# Assay: cell-based or functional assay
Binder,X… HeLa EC50,Max killing %
"GOMP001_bsAb_045 (bispecific antibody, human IgG1, kappa, L234A L235A) heavy 1: QVQLVQSGAEVKKPGASVKVSCKASGYTFTSHWMHWVRKAPGQGLEWIGEFNPSNGRTNYNEEFKSKATMTVDTSTNTAYMELSSLRSEDTAVYYCASRDYDYDGRYFDYWGQGTLVTVSSASTKGPSVFPLAPSSKSTSGGTAALGCLVADYFPEPVTVSWNSGALTSGVHTFPAVLQSSGLYSLSSVVTVPSSSLGTQTYICNVNHKPSNTKVDEKVEPKSCDKTHTCPPCPAPEAAGGPSVFLFPPKPKDTLMISRTPEVTCVVVDVSHEDPEVKFNWYVDGVEVHNAKTKPREEQYNSTYRVVSVLTVLHQDWLNGKEYKCKVSNKALPAPIEKTISKAKGQPREPQVYTLPPSREEMTDNQVSLTCLVKGFYPSDIAVEWESNGQPENNYKTTPPVLMSDGSFFLASKLTVDKSRWQQGNVFSCSVMHEALHNHYTQKSLSLSPG light 1: RIQMTQSPSSLSASVGDRVTITCSASSSVTYMYWYQDKPGKAPKLLIYDTSNLASGVPSRFSGSGSGTDYTFTISSLQPEDIATYYCQQWSSHIFTFGQGTKVEIKRTVAAPSVFIFPPSDKQLKSGTARVVCLLNNFYPREAKVQWKVDNALQSGNSQESVTEQDSKDSTYSLSSTLTLSKADYEKHKVYACEVTHQGLSSPVTKSFNRGEC heavy 2: EVQLVESGGGLVQPGRSLRLSCATSGFTFADYTMHWVRYAPGKGLEWVSGISWNSGSIDYADRVKGRFTISRDNAKKSLYLQMNSLRAEDTALYFCAKDSSGYGHYYFYYLDVWGRGTTVTVSSASTKGPSVFPLAPSSKSTSGGTAALGCLVKDYFPEPVTVSWNSGALTSGVHTFPAVLQSSGLYSLSSVVTVPSSSLGTQTYICNVNHKPSNTKVDKKVEPKSCDKTHTCPPCPAPEAAGGPSVFLFPPKPKDTLMISRTPEVTCVVVDVSHEDPEVKFNWYVDGVEVHNAKTKPREEQYNSTYRVVSVLTVLHQDWLNGKEYKCKVSNKALPAPIEKTISKAKGQPRRPRVYTLPPSREEMTKNQVSLVCLVKGFYPSDIAVEWESNGQPENNYKTTPPVLDSDGSFFLYSVLTVDKSRWQQGNVFSCSVMHEALHNHYTQKSLSLSPG light 2: not shown",0.179 nM,69.5%
"GOMP001_bsAb_049 (bispecific antibody, human IgG1, kappa, L234A L235A) heavy 1: QVQLVQSGAEVKKPGASVKVSCKASGYTFTSHWMHWVRKAPGQGLEWIGEFNPSNGRTNYNEEFKSKATMTVDTSTNTAYMELSSLRSEDTAVYYCASRDYDYDGRYFDYWGQGTLVTVSSASTKGPSVFPLAPSSKSTSGGTAALGCLVADYFPEPVTVSWNSGALTSGVHTFPAVLQSSGLYSLSSVVTVPSSSLGTQTYICNVNHKPSNTKVDEKVEPKSCDKTHTCPPCPAPEAAGGPSVFLFPPKPKDTLMISRTPEVTCVVVDVSHEDPEVKFNWYVDGVEVHNAKTKPREEQYNSTYRVVSVLTVLHQDWLNGKEYKCKVSNKALPAPIEKTISKAKGQPREPQVYTLPPSREEMTDNQVSLTCLVKGFYPSDIAVEWESNGQPENNYKTTPPVLMSDGSFFLASKLTVDKSRWQQGNVFSCSVMHEALHNHYTQKSLSLSPG light 1: RIQMTQSPSSLSASVGDRVTITCSASSSVTYMYWYQDKPGKAPKLLIYDTSNLASGVPSRFSGSGSGTDYTFTISSLQPEDIATYYCQQWSSHIFTFGQGTKVEIKRTVAAPSVFIFPPSDKQLKSGTARVVCLLNNFYPREAKVQWKVDNALQSGNSQESVTEQDSKDSTYSLSSTLTLSKADYEKHKVYACEVTHQGLSSPVTKSFNRGEC heavy 2: QVQLVESGGGVVQPGRSLRLSCAASGFTFSTYGMHWVRYAPGKGLEWVAVIWYDGSHKYYADRVKGRFTISRDNSKKTLYLQMNSLRAEDTGIYYCARTGISGNMSYFYFDHWGRGILVTVSSASTKGPSVFPLAPSSKSTSGGTAALGCLVKDYFPEPVTVSWNSGALTSGVHTFPAVLQSSGLYSLSSVVTVPSSSLGTQTYICNVNHKPSNTKVDKKVEPKSCDKTHTCPPCPAPEAAGGPSVFLFPPKPKDTLMISRTPEVTCVVVDVSHEDPEVKFNWYVDGVEVHNAKTKPREEQYNSTYRVVSVLTVLHQDWLNGKEYKCKVSNKALPAPIEKTISKAKGQPRRPRVYTLPPSREEMTKNQVSLVCLVKGFYPSDIAVEWESNGQPENNYKTTPPVLDSDGSFFLYSVLTVDKSRWQQGNVFSCSVMHEALHNHYTQKSLSLSPG light 2: not shown",–,55.9%

# Now from value to binder, other results behind:
X… HeLa EC50,Binder,Max killing %
0.102 nM,"GOMP001_bsAb_043 (bispecific antibody, human IgG1, kappa, L234A L235A) heavy 1: QVQLVQSGAEVKKPGASVKVSCKASGYTFTSHWMHWVRKAPGQGLEWIGEFNPSNGRTNYNEEFKSKATMTVDTSTNTAYMELSSLRSEDTAVYYCASRDYDYDGRYFDYWGQGTLVTVSSASTKGPSVFPLAPSSKSTSGGTAALGCLVADYFPEPVTVSWNSGALTSGVHTFPAVLQSSGLYSLSSVVTVPSSSLGTQTYICNVNHKPSNTKVDEKVEPKSCDKTHTCPPCPAPEAAGGPSVFLFPPKPKDTLMISRTPEVTCVVVDVSHEDPEVKFNWYVDGVEVHNAKTKPREEQYNSTYRVVSVLTVLHQDWLNGKEYKCKVSNKALPAPIEKTISKAKGQPREPQVYTLPPSREEMTDNQVSLTCLVKGFYPSDIAVEWESNGQPENNYKTTPPVLMSDGSFFLASKLTVDKSRWQQGNVFSCSVMHEALHNHYTQKSLSLSPG light 1: RIQMTQSPSSLSASVGDRVTITCSASSSVTYMYWYQDKPGKAPKLLIYDTSNLASGVPSRFSGSGSGTDYTFTISSLQPEDIATYYCQQWSSHIFTFGQGTKVEIKRTVAAPSVFIFPPSDKQLKSGTARVVCLLNNFYPREAKVQWKVDNALQSGNSQESVTEQDSKDSTYSLSSTLTLSKADYEKHKVYACEVTHQGLSSPVTKSFNRGEC heavy 2: EVQLVESGGGLVKTGGSLRLSCVASGFSFKKAWMNWVRYAPGKGLEWVGRIKRNTDGGTADYAARVKGRFTLSRDDSKKTLFLQMNSLKTEDTAVYYCTTLDSSSYYVGYYYMDVWGRGTTVTVSSASTKGPSVFPLAPSSKSTSGGTAALGCLVKDYFPEPVTVSWNSGALTSGVHTFPAVLQSSGLYSLSSVVTVPSSSLGTQTYICNVNHKPSNTKVDKKVEPKSCDKTHTCPPCPAPEAAGGPSVFLFPPKPKDTLMISRTPEVTCVVVDVSHEDPEVKFNWYVDGVEVHNAKTKPREEQYNSTYRVVSVLTVLHQDWLNGKEYKCKVSNKALPAPIEKTISKAKGQPRRPRVYTLPPSREEMTKNQVSLVCLVKGFYPSDIAVEWESNGQPENNYKTTPPVLDSDGSFFLYSVLTVDKSRWQQGNVFSCSVMHEALHNHYTQKSLSLSPG light 2: DIQMTQSPSSVSASVGDRVTITCRASQDINNWLAWYQRKPGDAPKLLIYTASSLQSGVPSRFSGSGSGTDFTLTIGSLQPEDFATYYCQQAHSLPITFGQGTRLEIKRTVAAPSVFIFPPSDEQLKSGTASVVCLLNNFYPREAKVQWKVDNALQSGNSQESVTEQDSKDSTYSLSSTLTLSKADYEKHKVYACEVTHQGLSSPVTKSFNRGEC",76.2%
0.0264 nM,"GOMP001_bsAb_046 (bispecific antibody, human IgG1, kappa, L234A L235A) heavy 1: EVQLVESGGGLVQPGRSLRLSCATSGFTFADYTMHWVRKAPGKGLEWVSGISWNSGSIDYADEVKGRFTISRDNAKKSLYLQMNSLRAEDTALYFCAKDSSGYGHYYFYYLDVWGKGTTVTVSSASTKGPSVFPLAPSSKSTSGGTAALGCLVADYFPEPVTVSWNSGALTSGVHTFPAVLQSSGLYSLSSVVTVPSSSLGTQTYICNVNHKPSNTKVDEKVEPKSCDKTHTCPPCPAPEAAGGPSVFLFPPKPKDTLMISRTPEVTCVVVDVSHEDPEVKFNWYVDGVEVHNAKTKPREEQYNSTYRVVSVLTVLHQDWLNGKEYKCKVSNKALPAPIEKTISKAKGQPREPQVYTLPPSREEMTDNQVSLTCLVKGFYPSDIAVEWESNGQPENNYKTTPPVLMSDGSFFLASKLTVDKSRWQQGNVFSCSVMHEALHNHYTQKSLSLSPG light 1: not shown heavy 2: QVQLVQSGAEVKKPGASVKVSCKASGYTFTSHWMHWVRYAPGQGLEWIGEFNPSNGRTNYNEKFKSKATMTVDTSTNTAYMELSSLRSEDTAVYYCASRDYDYDGRYFDYWGRGTLVTVSSASTKGPSVFPLAPSSKSTSGGTAALGCLVKDYFPEPVTVSWNSGALTSGVHTFPAVLQSSGLYSLSSVVTVPSSSLGTQTYICNVNHKPSNTKVDKKVEPKSCDKTHTCPPCPAPEAAGGPSVFLFPPKPKDTLMISRTPEVTCVVVDVSHEDPEVKFNWYVDGVEVHNAKTKPREEQYNSTYRVVSVLTVLHQDWLNGKEYKCKVSNKALPAPIEKTISKAKGQPRRPRVYTLPPSREEMTKNQVSLVCLVKGFYPSDIAVEWESNGQPENNYKTTPPVLDSDGSFFLYSVLTVDKSRWQQGNVFSCSVMHEALHNHYTQKSLSLSPG light 2: DIQMTQSPSSLSASVGDRVTITCSASSSVTYMYWYQRKPGDAPKLLIYDTSNLASGVPSRFSGSGSGTDYTFTISSLQPEDIATYYCQQWSSHIFTFGQGTKVEIKRTVAAPSVFIFPPSDEQLKSGTASVVCLLNNFYPREAKVQWKVDNALQSGNSQESVTEQDSKDSTYSLSSTLTLSKADYEKHKVYACEVTHQGLSSPVTKSFNRGEC",92.6%
0.0201 nM,"GOMP001_bsAb_044 (bispecific antibody, human IgG1, kappa, L234A L235A) heavy 1: EVQLVESGGGLVKTGGSLRLSCVASGFSFKKAWMNWVRKAPGKGLEWVGRIKRNTDGGTADYAAEVKGRFTLSRDDSKKTLFLQMNSLKTEDTAVYYCTTLDSSSYYVGYYYMDVWGKGTTVTVSSASTKGPSVFPLAPSSKSTSGGTAALGCLVADYFPEPVTVSWNSGALTSGVHTFPAVLQSSGLYSLSSVVTVPSSSLGTQTYICNVNHKPSNTKVDEKVEPKSCDKTHTCPPCPAPEAAGGPSVFLFPPKPKDTLMISRTPEVTCVVVDVSHEDPEVKFNWYVDGVEVHNAKTKPREEQYNSTYRVVSVLTVLHQDWLNGKEYKCKVSNKALPAPIEKTISKAKGQPREPQVYTLPPSREEMTDNQVSLTCLVKGFYPSDIAVEWESNGQPENNYKTTPPVLMSDGSFFLASKLTVDKSRWQQGNVFSCSVMHEALHNHYTQKSLSLSPG light 1: RIQMTQSPSSVSASVGDRVTITCRASQDINNWLAWYQDKPGKAPKLLIYTASSLQSGVPSRFSGSGSGTDFTLTIGSLQPEDFATYYCQQAHSLPITFGQGTRLEIKRTVAAPSVFIFPPSDKQLKSGTARVVCLLNNFYPREAKVQWKVDNALQSGNSQESVTEQDSKDSTYSLSSTLTLSKADYEKHKVYACEVTHQGLSSPVTKSFNRGEC heavy 2: QVQLVQSGAEVKKPGASVKVSCKASGYTFTSHWMHWVRYAPGQGLEWIGEFNPSNGRTNYNEKFKSKATMTVDTSTNTAYMELSSLRSEDTAVYYCASRDYDYDGRYFDYWGRGTLVTVSSASTKGPSVFPLAPSSKSTSGGTAALGCLVKDYFPEPVTVSWNSGALTSGVHTFPAVLQSSGLYSLSSVVTVPSSSLGTQTYICNVNHKPSNTKVDKKVEPKSCDKTHTCPPCPAPEAAGGPSVFLFPPKPKDTLMISRTPEVTCVVVDVSHEDPEVKFNWYVDGVEVHNAKTKPREEQYNSTYRVVSVLTVLHQDWLNGKEYKCKVSNKALPAPIEKTISKAKGQPRRPRVYTLPPSREEMTKNQVSLVCLVKGFYPSDIAVEWESNGQPENNYKTTPPVLDSDGSFFLYSVLTVDKSRWQQGNVFSCSVMHEALHNHYTQKSLSLSPG light 2: DIQMTQSPSSLSASVGDRVTITCSASSSVTYMYWYQRKPGDAPKLLIYDTSNLASGVPSRFSGSGSGTDYTFTISSLQPEDIATYYCQQWSSHIFTFGQGTKVEIKRTVAAPSVFIFPPSDEQLKSGTASVVCLLNNFYPREAKVQWKVDNALQSGNSQESVTEQDSKDSTYSLSSTLTLSKADYEKHKVYACEVTHQGLSSPVTKSFNRGEC",84.1%
